Reference: publication PMC2924388, “Conformational Adaptation of Asian Macaque TRIMCyp Directs Lineage Specific Antiviral Activity” (PLoS Pathogens, 2010)

What was measured:
[1] = molecular target: T1, CypA domain of Mafa TRIMCyp2 with Cyp K143E (K446E in TRIMCyp) (Macaca fascicularis); experiment: ITC; MicroCal ITC200; cyclophilin (typical concentration 1.4 mM) in the syringe, capsid (typical concentration 120 µM) in the cell; 50 mM KPO4 pH 7.4, 100 mM NaCl, 1 mM DTT; 15°C; one-state model; details: both partners purified
T1 construct: As m1 but with glutamate at Cyp 143 (the residue of CypA and of Mamu TRIMCyp); also called Mafa TCyp2 K143E; K143E mutant; source: E. coli BL21 (DE3), purified (Ni-NTA, gel filtration), as per the wild-type protein

[2] = molecular target: T2, CypA domain of Macaca fascicularis TRIMCyp2 (Mafa TRIMCyp2) (Macaca fascicularis); experiment: as above; details: both partners purified
T2 construct: Cyp 54, 66, 69 and 143 are TRIMCyp 357, 369, 372 and 446. numbers count on: CypA; Natural allele; also called Mafa TCyp2; Mafa Cyp; source: E. coli BL21 (DE3), purified (Ni-NTA, gel filtration)

B1: FIV capsid N-terminal domain (domain or fragment)
chain: PIQTVNGVPQYVALDPKMVSIFMEKAREGLGGEEVQLWFTAFSANLTPTDMATLIMAAPGCAADKEILDESLKQLTAEYDRTHPPDAPRPLPYFTAAEIMGIGLTQEQQAEARFAPARMQCRAWYLEALGKLAAIKAKS
modifications: Unmodified wild-type domain. Strain and limits are not printed: the Petaluma isolate is assumed. The start is the capsid p24 N-terminus (136); the end is set by homology to HIV-1 CA-N 1-146 (pdb 2X83)
- Kd [1]: 15 µM
- Kd [2]: 27 µM
